Results: article PMC6007489 (Nucleic Acids Research, 2018)

T1: His–Rad1–Rad10 (S. cerevisiae, UniProt P06777 1-1100; P06838 1-210)
T1 sequence (looked up) 1: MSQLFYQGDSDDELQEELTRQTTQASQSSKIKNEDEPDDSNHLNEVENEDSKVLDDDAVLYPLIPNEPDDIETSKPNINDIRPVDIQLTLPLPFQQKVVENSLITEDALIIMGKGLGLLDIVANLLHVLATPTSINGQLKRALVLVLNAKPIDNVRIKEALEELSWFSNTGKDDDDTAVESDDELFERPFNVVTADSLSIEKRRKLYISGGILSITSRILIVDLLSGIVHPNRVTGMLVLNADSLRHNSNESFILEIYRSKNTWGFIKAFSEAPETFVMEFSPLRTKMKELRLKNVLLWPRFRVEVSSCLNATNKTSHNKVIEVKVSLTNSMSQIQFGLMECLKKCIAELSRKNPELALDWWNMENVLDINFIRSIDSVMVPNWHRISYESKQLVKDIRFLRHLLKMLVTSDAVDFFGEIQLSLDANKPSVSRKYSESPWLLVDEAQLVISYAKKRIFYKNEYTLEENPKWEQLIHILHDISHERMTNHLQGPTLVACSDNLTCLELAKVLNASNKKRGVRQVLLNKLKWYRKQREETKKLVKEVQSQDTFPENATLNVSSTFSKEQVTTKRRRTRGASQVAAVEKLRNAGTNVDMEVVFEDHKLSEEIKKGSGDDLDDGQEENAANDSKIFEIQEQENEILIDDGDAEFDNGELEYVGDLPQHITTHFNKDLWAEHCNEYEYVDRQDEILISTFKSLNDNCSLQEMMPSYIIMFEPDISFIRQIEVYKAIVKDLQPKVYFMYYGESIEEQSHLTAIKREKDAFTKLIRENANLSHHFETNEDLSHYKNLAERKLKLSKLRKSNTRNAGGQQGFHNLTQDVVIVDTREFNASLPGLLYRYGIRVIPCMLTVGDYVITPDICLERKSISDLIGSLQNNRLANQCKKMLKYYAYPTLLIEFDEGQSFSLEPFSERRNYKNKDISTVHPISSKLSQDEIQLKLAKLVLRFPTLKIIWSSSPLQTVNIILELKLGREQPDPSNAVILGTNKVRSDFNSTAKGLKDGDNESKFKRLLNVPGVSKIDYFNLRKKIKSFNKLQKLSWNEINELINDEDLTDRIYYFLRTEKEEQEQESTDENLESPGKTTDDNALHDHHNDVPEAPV
T1 sequence (looked up) 2: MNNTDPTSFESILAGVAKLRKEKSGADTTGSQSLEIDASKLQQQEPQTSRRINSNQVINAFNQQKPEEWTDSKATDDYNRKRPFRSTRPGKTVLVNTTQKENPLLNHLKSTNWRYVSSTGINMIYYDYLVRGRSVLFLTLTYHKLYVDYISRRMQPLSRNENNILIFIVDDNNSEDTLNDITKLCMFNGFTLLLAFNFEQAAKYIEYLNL

B1: 6xHis–Saw1 (natural protein, S. cerevisiae, UniProt P39735 1-261, looked up)
chain: MAPSIATVKIARDMVLPLRIFVNRKQILQTNDKTSNKSNATIFEAPLLSNNSIICLKSPNTRIYLSQQDKKNLCDEIKEDLLLIVYELASPEIISSVLSKIRVGHSTDFQINVLPKLFAGADTDNAVTSHIQSVTRLAKFKYKLHYKHKWELDIFINSIKKIANLRHYLMFQTLTLNGFSLNAGPKTLLARKIEKQPQVPNLLIENGDADALDTPVEEDIKPVIEFMYKPVINLGEIIDVHVLHRPRRHKVRTQSKQPQEE

Tests used:
Msh2–Msh3 [1] = target: T2, Msh2–Msh3 (S. cerevisiae, UniProt P25847 1-964; P25336 1-1018); assay: far-Western, overlay or dot blot
T2 sequence (P25847 whole entry, chain 1 of 2): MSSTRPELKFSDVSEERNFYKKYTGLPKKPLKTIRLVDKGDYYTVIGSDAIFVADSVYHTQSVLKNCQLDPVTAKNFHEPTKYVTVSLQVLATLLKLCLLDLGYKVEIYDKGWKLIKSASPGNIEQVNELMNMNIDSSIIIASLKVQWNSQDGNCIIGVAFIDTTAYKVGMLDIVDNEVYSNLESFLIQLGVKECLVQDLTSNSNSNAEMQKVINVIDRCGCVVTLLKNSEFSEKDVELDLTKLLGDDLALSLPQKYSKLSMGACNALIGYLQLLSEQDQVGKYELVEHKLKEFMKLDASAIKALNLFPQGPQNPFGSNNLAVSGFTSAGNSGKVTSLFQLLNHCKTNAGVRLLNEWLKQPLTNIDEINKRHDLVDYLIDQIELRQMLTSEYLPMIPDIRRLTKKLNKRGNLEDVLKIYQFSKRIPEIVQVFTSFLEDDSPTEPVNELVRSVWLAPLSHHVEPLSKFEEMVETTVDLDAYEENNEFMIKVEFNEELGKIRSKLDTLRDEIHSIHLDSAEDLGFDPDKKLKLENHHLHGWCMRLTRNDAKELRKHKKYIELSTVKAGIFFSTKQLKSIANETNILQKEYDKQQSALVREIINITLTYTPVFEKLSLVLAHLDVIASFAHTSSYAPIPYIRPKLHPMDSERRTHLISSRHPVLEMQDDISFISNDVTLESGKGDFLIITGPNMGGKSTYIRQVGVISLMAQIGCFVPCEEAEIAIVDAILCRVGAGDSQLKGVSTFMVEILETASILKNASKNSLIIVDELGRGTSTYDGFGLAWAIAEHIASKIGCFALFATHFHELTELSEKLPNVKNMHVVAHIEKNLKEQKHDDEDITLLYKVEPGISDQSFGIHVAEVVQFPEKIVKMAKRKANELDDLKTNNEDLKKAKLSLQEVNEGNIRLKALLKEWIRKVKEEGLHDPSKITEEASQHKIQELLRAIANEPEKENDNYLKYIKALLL
T2 sequence (P25336 whole entry, chain 2 of 2): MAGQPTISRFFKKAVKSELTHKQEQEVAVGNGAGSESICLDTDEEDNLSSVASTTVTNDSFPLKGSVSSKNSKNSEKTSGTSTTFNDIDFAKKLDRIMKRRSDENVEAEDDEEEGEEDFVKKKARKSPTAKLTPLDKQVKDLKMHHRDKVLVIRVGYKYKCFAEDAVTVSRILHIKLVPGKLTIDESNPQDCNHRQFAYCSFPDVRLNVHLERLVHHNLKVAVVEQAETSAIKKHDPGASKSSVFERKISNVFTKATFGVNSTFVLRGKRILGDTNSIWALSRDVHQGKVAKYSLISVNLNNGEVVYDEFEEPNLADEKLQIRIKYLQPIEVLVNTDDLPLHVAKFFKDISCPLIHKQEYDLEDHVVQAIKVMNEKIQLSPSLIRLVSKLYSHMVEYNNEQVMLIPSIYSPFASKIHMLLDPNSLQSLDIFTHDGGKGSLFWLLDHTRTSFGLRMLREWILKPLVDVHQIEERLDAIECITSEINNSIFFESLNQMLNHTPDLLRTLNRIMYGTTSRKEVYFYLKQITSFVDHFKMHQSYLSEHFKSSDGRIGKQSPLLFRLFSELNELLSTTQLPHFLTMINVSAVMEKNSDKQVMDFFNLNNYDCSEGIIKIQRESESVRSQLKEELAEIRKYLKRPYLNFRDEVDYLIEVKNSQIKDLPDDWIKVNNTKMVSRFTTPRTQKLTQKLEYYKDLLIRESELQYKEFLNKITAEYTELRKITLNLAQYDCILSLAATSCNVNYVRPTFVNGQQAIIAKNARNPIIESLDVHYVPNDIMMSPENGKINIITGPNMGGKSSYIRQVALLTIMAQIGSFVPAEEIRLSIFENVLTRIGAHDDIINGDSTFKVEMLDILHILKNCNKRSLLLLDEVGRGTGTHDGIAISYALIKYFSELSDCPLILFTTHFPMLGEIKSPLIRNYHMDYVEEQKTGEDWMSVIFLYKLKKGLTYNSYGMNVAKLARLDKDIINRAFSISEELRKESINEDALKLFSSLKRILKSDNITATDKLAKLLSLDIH

6xHis–Saw1 = target: B1; assay: co-IP
His–Rad1–Rad10 = target: T1, His–Rad1–Rad10; assay: co-IP
Msh2–Msh3 [2] = target: T2, Msh2–Msh3; assay: co-IP

Binder	binding result (Msh2–Msh3 [1])	fold immunoprecipitated relative to His–Rad1–Rad10 (6xHis–Saw1) [fold]	binding result (His–Rad1–Rad10)	binding result (Msh2–Msh3 [2])
His–rad1R218A–Rad10 (complex, S. cerevisiae) chain 1: MSQLFYQGDSDDELQEELTRQTTQASQSSKIKNEDEPDDSNHLNEVENEDSKVLDDDAVLYPLIPNEPDDIETSKPNINDIRPVDIQLTLPLPFQQKVVENSLITEDALIIMGKGLGLLDIVANLLHVLATPTSINGQLKRALVLVLNAKPIDNVRIKEALEELSWFSNTGKDDDDTAVESDDELFERPFNVVTADSLSIEKRRKLYISGGILSITSAILIVDLLSGIVHPNRVTGMLVLNADSLRHNSNESFILEIYRSKNTWGFIKAFSEAPETFVMEFSPLRTKMKELRLKNVLLWPRFRVEVSSCLNATNKTSHNKVIEVKVSLTNSMSQIQFGLMECLKKCIAELSRKNPELALDWWNMENVLDINFIRSIDSVMVPNWHRISYESKQLVKDIRFLRHLLKMLVTSDAVDFFGEIQLSLDANKPSVSRKYSESPWLLVDEAQLVISYAKKRIFYKNEYTLEENPKWEQLIHILHDISHERMTNHLQGPTLVACSDNLTCLELAKVLNASNKKRGVRQVLLNKLKWYRKQREETKKLVKEVQSQDTFPENATLNVSSTFSKEQVTTKRRRTRGASQVAAVEKLRNAGTNVDMEVVFEDHKLSEEIKKGSGDDLDDGQEENAANDSKIFEIQEQENEILIDDGDAEFDNGELEYVGDLPQHITTHFNKDLWAEHCNEYEYVDRQDEILISTFKSLNDNCSLQEMMPSYIIMFEPDISFIRQIEVYKAIVKDLQPKVYFMYYGESIEEQSHLTAIKREKDAFTKLIRENANLSHHFETNEDLSHYKNLAERKLKLSKLRKSNTRNAGGQQGFHNLTQDVVIVDTREFNASLPGLLYRYGIRVIPCMLTVGDYVITPDICLERKSISDLIGSLQNNRLANQCKKMLKYYAYPTLLIEFDEGQSFSLEPFSERRNYKNKDISTVHPISSKLSQDEIQLKLAKLVLRFPTLKIIWSSSPLQTVNIILELKLGREQPDPSNAVILGTNKVRSDFNSTAKGLKDGDNESKFKRLLNVPGVSKIDYFNLRKKIKSFNKLQKLSWNEINELINDEDLTDRIYYFLRTEKEEQEQESTDENLESPGKTTDDNALHDHHNDVPEAPV chain 2: MNNTDPTSFESILAGVAKLRKEKSGADTTGSQSLEIDASKLQQQEPQTSRRINSNQVINAFNQQKPEEWTDSKATDDYNRKRPFRSTRPGKTVLVNTTQKENPLLNHLKSTNWRYVSSTGINMIYYDYLVRGRSVLFLTLTYHKLYVDYISRRMQPLSRNENNILIFIVDDNNSEDTLNDITKLCMFNGFTLLLAFNFEQAAKYIEYLNL	binds	~3		
B1			binds	binds
